Laboratory results from patent US20230094162A1 (MacroGenics, published 2023).
Substitutions are numbered along the chain they refer to. In names and notes the source's numbering stands. Where two headings read alike, the source gives them in different places.

Key:
[1] = target: T1, CD137 expressed on the cell surface (CHO/CD137 cells) (UniProt Q07011 24-255, limits assumed); assay: flow cytometry (FACS) on CHO cells expressing CD137, MFI
T1 construct: whole, on cells; also called cell surface CD137; Jurkat-NF-κB-Luc reporter cells overexpressing CD137

[2] = target: T2, PD-L1 expressed on the cell surface (CHO/PD-L1 cells) (UniProt Q9NZQ7 19-290); assay: cell-based or functional assay
[3] = target: T2, PD-L1 expressed on the cell surface …; assay: cell-based or functional assay; remark: listed apart in the source
[4] = target: T2, PD-L1 expressed on the cell surface …; assay: flow cytometry (FACS) on CHO cells expressing PD-L1, MFI
Protocol: (§1) FACS analysis to evaluate the test articles for binding to cell surface PD-L1 was performed essentially as follows: 100 μL of CHO cells expressing PD-L1 (CHO/PD-L1) (1.0×10⁵ to 1.0×10⁶ cells/well) and 100 μL of serially diluted test article was added to each well of microtiter assay plate(s), mixed and incubated at RT for about 30 min. The cells were washed with FACS Buffer and secondary antibody (goat anti-human-FITC, PE, or APC) was then added to each well, after which, the components were mixed and the wells were incubated at RT for about 30 min. Cells were washed and resuspended in 250 μL FACS Buffer and analyzed by flow cytometry (BD LSR Fortessa or FACSCanto II) for cell events collection. Data analysis were performed via FloJo v10.
Test articles were used at 10 μg/mL and five-fold serial dilutions for the FACS analysis and at 50 μg/mL and five-fold serial dilutions for the PD-L1 reporter assay.

[5] = target: T1, CD137 expressed on the cell surface …; assay: flow cytometry (FACS) on CHO cells expressing CD137, MFI; remark: listed apart in the source
Protocol: FACS analysis to evaluate the test articles for binding to cell surface CD137 was performed essentially as follows: 100 μL of CHO cells expressing CD137 (CHO/CD137) (1.0×10⁵ to 1×10⁶ cells/well) and 100 μL of serially diluted test article or control was added to each well of microtiter assay plate(s), mixed and incubated at RT for about 30 min. The cells were washed with FACS Buffer and secondary antibody (goat anti-human-APC, PE, or FITC) was then added to each well (1:1000), after which, the components were mixed and the wells were incubated at RT for about 30 min. Cells were washed and resuspended in 250 μL FACS Buffer and analyzed by flow cytometry (BD LSR Fortessa or FACSCanto II) for cell events collection. Data analysis were performed via FloJo v10.

[6] = target: T2, PD-L1 expressed on the cell surface …; assay: flow cytometry (FACS) on CHO cells expressing PD-L1, MFI; remark: listed apart in the source
Protocol: as §1

[7] = target: T2, PD-L1 expressed on the cell surface …; assay: cell-based or functional assay; remark: listed apart in the source
[8] = target: T2, PD-L1 expressed on the cell surface …; assay: flow cytometry (FACS) on JIMT-1 cells (PD-L1 positive), MFI
[9] = target: T2, PD-L1 expressed on the cell surface …; assay: cell-based or functional assay; remark: listed apart in the source
[10] = target: T3, soluble PD-L1 fused to a His tag (shPD-L1) (UniProt Q9NZQ7 19-238, limits assumed); assay: ELISA on plate-coated shPD-L1
T3 construct: the species of shPD-L1 is not written out; also called shPD-L1-his; not shown: His tag
Protocol: For the hybridoma supernatants anti-CD137 antibody was utilized at 1.0 μg/mL and six three-fold serial dilutions. The amount of test article binding to the immobilized CD137 (human or cynomolgus monkey) was assessed using a goat anti-mouse IgG-HRP secondary antibody. All samples were analyzed on a plate reader (Victor 2 Wallac, Perkin Elmer) and EC50 values were calculated from dose-response curves by nonlinear regression analysis.
The binding of antibodies comprising these substitutions were evaluated for binding to a soluble PD-L1- fused to a His tag (shPD-L1) using an ELISA assay essentially as described above for CD137 binding except the plates were coated with shPD-L1 at 0.5 μg/mL and a goat anti-human IgG-HRP secondary antibody was used.

T2 sequence (Q9NZQ7 19-290): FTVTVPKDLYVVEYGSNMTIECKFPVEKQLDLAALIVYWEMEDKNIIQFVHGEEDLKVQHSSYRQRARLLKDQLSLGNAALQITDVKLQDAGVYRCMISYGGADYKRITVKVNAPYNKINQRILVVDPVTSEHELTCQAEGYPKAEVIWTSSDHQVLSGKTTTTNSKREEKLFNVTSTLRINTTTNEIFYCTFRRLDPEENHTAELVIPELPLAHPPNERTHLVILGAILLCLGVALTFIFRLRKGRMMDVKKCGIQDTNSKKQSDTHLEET
T3 sequence (Q9NZQ7 19-238 limits assumed): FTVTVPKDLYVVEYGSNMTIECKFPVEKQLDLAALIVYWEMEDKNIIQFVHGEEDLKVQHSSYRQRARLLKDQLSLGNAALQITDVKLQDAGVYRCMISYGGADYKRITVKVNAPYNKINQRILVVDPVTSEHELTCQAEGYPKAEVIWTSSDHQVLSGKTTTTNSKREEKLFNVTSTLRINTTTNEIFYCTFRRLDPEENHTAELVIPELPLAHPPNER
T1 sequence (Q07011 24-255 limits assumed): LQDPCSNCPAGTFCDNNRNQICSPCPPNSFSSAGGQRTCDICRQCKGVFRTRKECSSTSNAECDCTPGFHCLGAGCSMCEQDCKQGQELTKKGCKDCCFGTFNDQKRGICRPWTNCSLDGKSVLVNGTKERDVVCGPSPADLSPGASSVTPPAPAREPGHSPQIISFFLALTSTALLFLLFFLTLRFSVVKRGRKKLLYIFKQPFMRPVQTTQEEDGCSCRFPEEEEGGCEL

B1: TRIDENT-A6 (bispecific antibody, human IgG1, kappa, L234A L235A)
chain 1: EIVMTQSPATLSLSPGERATLSCRASQSVSSNYLSWFQQKPGQAPRLLIYGASTRATGIPARFSGSGSGTDFTLTISSLQPEDFAVYYCQQDYDLPWTFGQGTKVEIKGGGSGGGGQVQLQESGPGLVKPSETLSLTCTVSGGSISSYYWSWIRQPPGKGLEWIGRIYTSGSTNYNPSLKSRVTMSVDTSKNQFSLKLSSVTAADTAVYYCARDGWYDEDYNYYGMDVWGQGTTVTVSSGGCGGGEVAALEKEVAALEKEVAALEKEVAALEKGGGDKTHTCPPCPAPEAAGGPSVFLFPPKPKDTLYITREPEVTCVVVDVSHEDPEVKFNWYVDGVEVHNAKTKPREEQYNSTYRVVSVLTVLHQDWLNGKEYKCKVSNKALPAPIEKTISKAKGQPREPQVYTLPPSREEMTKNQVSLWCLVKGFYPSDIAVEWESNGQPENNYKTTPPVLDSDGSFFLYSKLTVDKSRWQQGNVFSCSVMHEALHNHYTQKSLSLSPGK
chain 2: EIVMTQSPATLSLSPGERATLSCRASQSVSSNYLSWFQQKPGQAPRLLIYGASTRATGIPARFSGSGSGTDFTLTISSLQPEDFAVYYCQQDYDLPWTFGQGTKVEIKGGGSGGGGQVQLQESGPGLVKPSETLSLTCTVSGGSISSYYWSWIRQPPGKGLEWIGRIYTSGSTNYNPSLKSRVTMSVDTSKNQFSLKLSSVTAADTAVYYCARDGWYDEDYNYYGMDVWGQGTTVTVSSGGCGGGKVAALKEKVAALKEKVAALKEKVAALKE
heavy: EVQLVESGGGLVQPGGSLRLSCAASGFTFSSYTMSWVRQAPGKGLEWVAYISIKGGTTYYPDTVKGRFTISRDNAKNSLYLQMNSLRAEDTAVYYCARQGLPYYGDYWGQGTLVTVSSASTKGPSVFPLAPSSKSTSGGTAALGCLVKDYFPEPVTVSWNSGALTSGVHTFPAVLQSSGLYSLSSVVTVPSSSLGTQTYICNVNHKPSNTKVDKRVEPKSCDKTHTCPPCPAPEAAGGPSVFLFPPKPKDTLYITREPEVTCVVVDVSHEDPEVKFNWYVDGVEVHNAKTKPREEQYNSTYRVVSVLTVLHQDWLNGKEYKCKVSNKALPAPIEKTISKAKGQPREPQVYTLPPSREEMTKNQVSLSCAVKGFYPSDIAVEWESNGQPENNYKTTPPVLDSDGSFFLVSKLTVDKSRWQQGNVFSCSVMHEALHNRYTQKSLSLSPGK
light: DIQMTQSPSSLSASVGDRVTITCKASQDVNEAVAWYQQKPGKAPKLLIYWASTRHTGVPSRFSGSGSGTDFTLTISSLQPEDFATYYCQQHYNTPLTFGQGTKVEIKRTVAAPSVFIFPPSDEQLKSGTASVVCLLNNFYPREAKVQWKVDNALQSGNSQESVTEQDSKDSTYSLSSTLTLSKADYEKHKVYACEVTHQGLSSPVTKSFNRGEC
notes: Trivalent; two CD137 MAB-6(1.3) sites, one hPD-L1 MAB-2(3.2) site
EC50 (read off the curve) [1]: ~0.01 µg/mL
EC50 (read off the curve) [2]: ~0.5 µg/mL

B2: DART-A (bispecific antibody, IgG1)
chain 1: DIQMTQSPSSLSASVGDRVTITCKASQDVNTAVAWYQQKPGKAPKLLIYWASTRHTGVPSRFSGSGSGTDFTLTISSLQPEDFATYYCQQHYNTPLTFGQGTKVEIKGGGSGGGGQVQLQESGPGLVKPSETLSLTCTVSGGSISSYYWSWIRQPPGKGLEWIGRIYTSGSTNYNPSLKSRVTMSVDTSKNQFSLKLSSVTAADTAVYYCARDGWYDEDYNYYGMDVWGQGTTVTVSSGGCGGGEVAACEKEVAALEKEVAALEKEVAALEKLEPKSADKTHTCPPCPAPEAAGGPSVFLFPPKPKDTLYITREPEVTCVVVDVSHEDPEVKFNWYVDGVEVHNAKTKPREEQYNSTYRVVSVLTVLHQDWLNGKEYKCKVSNKALPAPIEKTISKAKGQPREPQVYTLPPSREEMTKNQVSLTCLVKGFYPSDIAVEWESNGQPENNYKTTPPVLDSDGSFFLYSKLTVDKSRWQQGNVFSCSVMHEALHNHYTQKSLSLSPG
chain 2: EIVMTQSPATLSLTPGERATLSCRASQSVSSNYLSWFQQIPGQAPRLLIYGASTRATGIPARFSGSGSGTDFTLTISSLQPEDFAVYYCQQDYDLPWTFGQGTKVEIKGGGSGGGGEVQLVESGGGLVQPGGSLRLSCAASGFTFSSYTMSWVRQAPGKGLEWVAYISIGGGTTYYPDTVKGRFTISRDNAKNTLYLQMNSLKTEDTAVYYCARQGLPYYFDYWGQGTLVTVSSGGCGGGKVAACKEKVAALKEKVAALKEKVAALKE
notes: Tetravalent CD137 x PD-L1 Fc diabody; CD137 MAB-6(1.1) and hPD-L1 MAB-2(1.1); IgG1 (AA/YTE)
EC50 (read off the curve) [3]: ~0.08 µg/mL
EC50 (read off the curve) [4]: ~0.04 µg/mL
EC50 (read off the curve) [5]: ~0.06 µg/mL
EC50 (read off the curve) [6]: ~0.02 µg/mL
EC50 (read off the curve) [7]: ~0.2 µg/mL

B3: hPD-L1 MAB-2(1.1) (antibody, V domains shown)
VH: EVQLVESGGGLVQPGGSLRLSCAASGFTFSSYTMSWVRQAPGKGLEWVAYISIGGGTTYYPDTVKGRFTISRDNAKNTLYLQMNSLKTEDTAVYYCARQGLPYYFDYWGQGTLVTVSS
VL: DIQMTQSPSSLSASVGDRVTITCKASQDVNTAVAWYQQKPGKAPKLLIYWASTRHTGVPSRFSGSGSGTDFTLTISSLQPEDFATYYCQQHYNTPLTFGQGTKVEIK
notes: Humanized anti-PD-L1 antibody; also called hPD-1 MAB-2(1.1); hPD-1 MAB-2 VH1
EC50 (read off the curve) [3]: ~0.04 µg/mL
EC50 (read off the curve) [4]: ~0.03 µg/mL
EC50 (read off the curve) [8]: ~0.005 µg/mL
EC50 (read off the curve) [9]: ~0.07 µg/mL

B4: hPD-1 MAB-2 VH1 + K83R and T84A (antibody, V domains shown)
VH: B3 VH with K87R, T88A
VL: B3 VL
notes: Deimmunization variant of hPD-L1 MAB-2(1.1)
binding result [10]: binds

B5: hPD-L1 MAB-2F (antibody) (antibody, V domains shown)
VH: B3 VH with G54K, F105G
VL: B3 VL with T31E
EC50 (read off the curve) [6]: ~0.01 µg/mL
EC50 (read off the curve) [2]: ~0.2 µg/mL
EC50 (read off the curve) [7]: ~0.2 µg/mL

B6: hPD-1 MAB-2 VH1 + T77S, K83R and T84A (antibody, V domains shown)
VH: B3 VH with T78S, K87R, T88A
VL: B3 VL
notes: also called hPD-L1 MAB-2 VH2; hPD-L1 MAB-2(2.1)
binding result [10]: binds

B7: hPD-1 MAB-2 VH1 + T77S (antibody, V domains shown)
VH: B3 VH with T78S
VL: B3 VL
notes: as for B4
binding result [10]: binds
